Data on eight molecules can be found in patent EP4538294A1 (Shandong Simcere Biopharmaceutical Co., Ltd., dated 2025).

For test [1], the target named is T1, human BCMA on Flp-inCHO-human BCMA cells (human, UniProt Q02223 1-184).
T1 construct: whole, on cells
T1 sequence (looked up): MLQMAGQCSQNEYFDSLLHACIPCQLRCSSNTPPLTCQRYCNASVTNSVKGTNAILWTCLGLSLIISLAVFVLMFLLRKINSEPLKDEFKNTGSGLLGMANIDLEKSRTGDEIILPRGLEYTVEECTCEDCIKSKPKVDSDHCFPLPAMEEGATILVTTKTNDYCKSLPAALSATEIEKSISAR
In words: FACS, Flp-inCHO-human BCMA cells.

For test [2], the target named is T2, monkey CD3 on activated monkey PBMC (monkey).
T2 construct: whole, on cells
In words: FACS, activated monkey PBMC.

Test [3] has as its target T3, human GPRC5D on CHOK1-human GPRC5D cells (human, UniProt Q9NZD1 1-345).
T3 construct: whole, on cells
The experiment in a line: FACS, CHOK1-human GPRC5D cells.

T3 sequence (Q9NZD1 whole entry): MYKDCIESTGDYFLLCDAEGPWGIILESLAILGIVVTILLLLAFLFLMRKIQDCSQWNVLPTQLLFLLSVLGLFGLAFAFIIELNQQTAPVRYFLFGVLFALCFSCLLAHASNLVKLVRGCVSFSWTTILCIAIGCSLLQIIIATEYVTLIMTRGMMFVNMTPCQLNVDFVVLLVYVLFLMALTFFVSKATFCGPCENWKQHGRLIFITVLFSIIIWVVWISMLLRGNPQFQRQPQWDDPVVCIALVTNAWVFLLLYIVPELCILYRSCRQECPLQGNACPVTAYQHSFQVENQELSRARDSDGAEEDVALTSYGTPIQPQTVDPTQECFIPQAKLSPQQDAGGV
T2 sequence (Q95LI5 22-198): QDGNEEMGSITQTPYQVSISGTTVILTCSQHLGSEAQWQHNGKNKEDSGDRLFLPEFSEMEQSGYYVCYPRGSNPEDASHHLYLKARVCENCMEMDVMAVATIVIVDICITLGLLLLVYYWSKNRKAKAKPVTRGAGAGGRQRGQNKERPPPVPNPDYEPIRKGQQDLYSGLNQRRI

B1: Tri-17 (trispecific antibody, V domains shown)
VHH: EVQLVESGGGLVQPGGSLRLSCSASGFTLDYYMIGWFRQAPGKEREGLSSISPADGSTYYADSVKGRFTISRDSSKNTVYLQMNSLRAEDTAVYYCAAGNEATISWGFGPWEYDYWGQGTMVTVSS
VH 1: EVQLVQSGAEVKKPGSSVKVSCKASGYTFTSYGISWVRQAPGQGLEWMGEIYPRSGNTYYNEKFKGRVTLTADKSTSTAYMELSSLRSEDTAVYYCARGRAYGRNYPMDYWGQGTTVTVSS
VL 1: EIVLTQSPATLSLSPGERATLSCRASQSIGTSIHWYQQKPGQSPRLLIKYASESISGIPARFSGSGSGTDFTLTISSLEPEDFAVYYCQQSNSWPYTFGGGTKVEIK
VH 2: EVQLVESGGGVVQPGRSLRLSCAASGFTFTDYYMSWVRQAPGKGLEWVAMSRNKAKGHTIEYSSSVKGRFTISRDNSKNTLYLQMNSLRAEDTAVYYCARDTYESYDGYFDVWGQGTTVTVSS
VL 2: DIVMTQSPDSLAVSLGERATINCKSSQSLFNSRSRKNYLAWYQQKPGQTPKLLIYWASIRESGVPDRFSGSGSGTDFTLTISSLQAEDVAVYYCKQSYYLYTFGQGTKLEIK
B1: the values for the EC50 in test [1] and in test [3] were 2.97 nM and 0.69 nM, respectively. Further, the “Maximum mean fluorescence intensity” value in test [2] came out at 3280.

B2: Tri-38 (trispecific antibody, V domains shown)
VHH: EVQLVESGGGLVQPGGSLRLSCSASGFTLDYYMIGWFRQAPGKEREGLSSISPADGSTYYADSVKGRFTISRDSSKNTVYLQMNSLRAEDTAVYYCAAGNEATISWGFGPWEYDYWGQGTMVTVSS
VH 1: EVQLVQSGAEVKKPGSSVKVSCKASGYTFTSYGISWVRQAPGQGLEWMGEIYPRSGNTYYNEKFKGRVTLTADKSTSTAYMELSSLRSEDTAVYYCARGRAYGRNYPMDYWGQGTTVTVSS
VL 1: EIVLTQSPATLSLSPGERATLSCRASQSIGTSIHWYQQKPGQSPRLLIKYASESISGIPARFSGSGSGTDFTLTISSLEPEDFAVYYCQQSNSWPYTFGGGTKVEIK
VH 2: EVQLVESGGGVVQPGRSLRLSCAASGFTFTDYYMSWVRQAPGKGLEWVAMSRNKAKGHTIEYSSSVKGRFTISRDNSKNTLYLQMNSLRAEDTAVYYCARDTYESYDGYFDVWGQGTTVTVSS
VL 2: DIVMTQSPDSLAVSLGERATINCKSSQSLFNSRSRKNYLAWYQQKPGQTPKLLIYWASIRESGVPDRFSGSGSGTDFTLTISSLQAEDVAVYYCKQSYYLYTFGQGTKLEIK
Take B2: the concentration giving a half-maximal response (EC50) in test [1] was determined as 4.43 nM; in test [3], 2.06 nM. Moreover, the “Maximum mean fluorescence intensity” value in test [2] was determined as 1440.

B3: Tri-56 (trispecific antibody, V domains shown)
VHH: EVQLVESGGGLVQPGGSLRLSCAASESISSIHIMAWYRQAPGKQRELVAGIRNDGSTVYVDSVKGRFTISRDNAKNSLYLQMNSLRAEDTAVYYCNADQGFGSYSEWERRSRWGQGTTVTVSS
VH 1: EVQLVQSGAEVKKPGSSVKVSCKASGYTFTSYGISWVRQAPGQGLEWMGEIYPRSGNTYYNEKFKGRVTLTADKSTSTAYMELSSLRSEDTAVYYCARGRAYGRNYPMDYWGQGTTVTVSS
VL 1: EIVLTQSPATLSLSPGERATLSCRASQSIGTSIHWYQQKPGQSPRLLIKYASESISGIPARFSGSGSGTDFTLTISSLEPEDFAVYYCQQSNSWPYTFGGGTKVEIK
VH 2: EVQLVESGGGVVQPGRSLRLSCAASGFTFTDYYMSWVRQAPGKGLEWVAMSRNKAKGHTIEYSSSVKGRFTISRDNSKNTLYLQMNSLRAEDTAVYYCARDTYESYDGYFDVWGQGTTVTVSS
VL 2: DIVMTQSPDSLAVSLGERATINCKSSQSLFNSRSRKNYLAWYQQKPGQTPKLLIYWASIRESGVPDRFSGSGSGTDFTLTISSLQAEDVAVYYCKQSYYLYTFGQGTKLEIK
Take B3: the concentration for a half-maximal effect (EC50) in test [1] stood at 1.3 nM; in test [3] it was 0.38 nM. In test [2], the “Maximum mean fluorescence intensity” value was determined as 575.

B4: Tri-52 (trispecific antibody, V domains shown)
VHH: EVQLVESGGGLVQPGGSLRLSCAASESISSIHIMAWYRQAPGKQRELVAGIRNDGSTVYVDSVKGRFTISRDNAKNSLYLQMNSLRAEDTAVYYCNADQGFGSYSEWERRSRWGQGTTVTVSS
VH 1: EVQLVQSGAEVKKPGSSVKVSCKASGYTFTSYGISWVRQAPGQGLEWMGEIYPRSGNTYYNEKFKGRVTLTADKSTSTAYMELSSLRSEDTAVYYCARGRAYGRNYPMDYWGQGTTVTVSS
VL 1: EIVLTQSPATLSLSPGERATLSCRASQSIGTSIHWYQQKPGQSPRLLIKYASESISGIPARFSGSGSGTDFTLTISSLEPEDFAVYYCQQSNSWPYTFGGGTKVEIK
VH 2: EVQLVESGGGVVQPGRSLRLSCAASGFTFTDYYMSWVRQAPGKGLEWVAMSRNKAKGHTIEYSSSVKGRFTISRDNSKNTLYLQMNSLRAEDTAVYYCARDTYESYDGYFDVWGQGTTVTVSS
VL 2: DIVMTQSPDSLAVSLGERATINCKSSQSLFNSRSRKNYLAWYQQKPGQTPKLLIYWASIRESGVPDRFSGSGSGTDFTLTISSLQAEDVAVYYCKQSYYLYTFGQGTKLEIK
For B4, the EC50 in test [1] stood at 1.88 nM; in test [3], 2.97 nM. Also, the “Maximum mean fluorescence intensity” value in test [2] is 693.

B5: Tri-64 (trispecific antibody, V domains shown)
VHH: EVQLVESGGGLVQPGGSLRLSCAASESISSIHIMAWYRQAPGKQRELVAGIRNDGSTVYVDSVKGRFTISRDNAKNSLYLQMNSLRAEDTAVYYCNADQGFGSYSEWERRSRWGQGTTVTVSS
VH 1: EVQLVQSGAEVKKPGSSVKVSCKASGYTFTSYGISWVRQAPGQGLEWMGEIYPRSGNTYYNEKFKGRVTLTADKSTSTAYMELSSLRSEDTAVYYCARGRAYGRNYPMDYWGQGTTVTVSS
VL 1: EIVLTQSPATLSLSPGERATLSCRASQSIGTSIHWYQQKPGQSPRLLIKYASESISGIPARFSGSGSGTDFTLTISSLEPEDFAVYYCQQSNSWPYTFGGGTKVEIK
VH 2: EVQLVESGGGVVQPGRSLRLSCAASGFTFTDYYMSWVRQAPGKGLEWVAMSRNKAKGHTIEYSSSVKGRFTISRDNSKNTLYLQMNSLRAEDTAVYYCARDTYESYDGYFDVWGQGTTVTVSS
VL 2: DIVMTQSPDSLAVSLGERATINCKSSQSLFNSRSRKNYLAWYQQKPGQTPKLLIYWASIRESGVPDRFSGSGSGTDFTLTISSLQAEDVAVYYCKQSYYLYTFGQGTKLEIK
As for B5, the EC50 stood at 1.08 nM in test [1] and 3.63 nM in test [3]. Also, in test [2], the “Maximum mean fluorescence intensity” value was found to be 348.

B6: Tri-63 (trispecific antibody, V domains shown)
VHH: EVQLVESGGGLVQPGGSLRLSCAASESISSIHIMAWYRQAPGKQRELVAGIRNDGSTVYVDSVKGRFTISRDNAKNSLYLQMNSLRAEDTAVYYCNADQGFGSYSEWERRSRWGQGTTVTVSS
VH 1: EVQLVQSGAEVKKPGSSVKVSCKASGYTFTSYGISWVRQAPGQGLEWMGEIYPRSGNTYYNEKFKGRVTLTADKSTSTAYMELSSLRSEDTAVYYCARGRAYGRNYPMDYWGQGTTVTVSS
VL 1: EIVLTQSPATLSLSPGERATLSCRASQSIGTSIHWYQQKPGQSPRLLIKYASESISGIPARFSGSGSGTDFTLTISSLEPEDFAVYYCQQSNSWPYTFGGGTKVEIK
VH 2: EVQLVESGGGVVQPGRSLRLSCAASGFTFTDYYMSWVRQAPGKGLEWVAMSRNKAKGHTIEYSSSVKGRFTISRDNSKNTLYLQMNSLRAEDTAVYYCARDTYESYDGYFDVWGQGTTVTVSS
VL 2: DIVMTQSPDSLAVSLGERATINCKSSQSLFNSRSRKNYLAWYQQKPGQTPKLLIYWASIRESGVPDRFSGSGSGTDFTLTISSLQAEDVAVYYCKQSYYLYTFGQGTKLEIK
B6: the 50% effective concentration (EC50) in test [1] is 2.1 nM; in test [3], 3.8 nM. The “Maximum mean fluorescence intensity” value in test [2] was 434.

B7: Tri-66 (trispecific antibody, V domains shown)
VHH: EVQLVESGGGLVQPGGSLRLSCAASESISSIHIMAWYRQAPGKQRELVAGIRNDGSTVYVDSVKGRFTISRDNAKNSLYLQMNSLRAEDTAVYYCNADQGFGSYSEWERRSRWGQGTTVTVSS
VH 1: EVQLVQSGAEVKKPGASVKVSCKTSGYIFTNFGITWVRQAPGQRLEWMGENYPRRINTYYNEKFKGRVTITADKSASTAYMELSSLRSEDTAVYYCSRKDIFGLSYALDYWGQGTTVTVSS
VL 1: DIQMTQSPSSLSASVGDRVTITCKASQNVGTNVAWYQHKPGKSPKALIYSASYQYSGVPSRFSGSGSGTDFTLTISSLQPEDVATYICQQYKNYPYTFGGGTKVEIK
VH 2: EVQLVESGGGVVQPGRSLRLSCAASGFTFTDYYMSWVRQAPGKGLEWVAMSRNKAKGHTIEYSSSVKGRFTISRDNSKNTLYLQMNSLRAEDTAVYYCARDTYESYDGYFDVWGQGTTVTVSS
VL 2: DIVMTQSPDSLAVSLGERATINCKSSQSLFNSRSRKNYLAWYQQKPGQTPKLLIYWASIRESGVPDRFSGSGSGTDFTLTISSLQAEDVAVYYCKQSYYLYTFGQGTKLEIK
As for B7, the concentration for a half-maximal effect (EC50) stood at 1.09 nM in test [1] and 1.53 nM in test [3]. Moreover, in test [2], the “Maximum mean fluorescence intensity” value is 345.

B8: Tri-65 (trispecific antibody, V domains shown)
VHH: EVQLVESGGGLVQPGGSLRLSCAASESISSIHIMAWYRQAPGKQRELVAGIRNDGSTVYVDSVKGRFTISRDNAKNSLYLQMNSLRAEDTAVYYCNADQGFGSYSEWERRSRWGQGTTVTVSS
VH 1: EVQLVQSGAEVKKPGASVKVSCKTSGYIFTNFGITWVRQAPGQRLEWMGENYPRRINTYYNEKFKGRVTITADKSASTAYMELSSLRSEDTAVYYCSRKDIFGLSYALDYWGQGTTVTVSS
VL 1: DIQMTQSPSSLSASVGDRVTITCKASQNVGTNVAWYQHKPGKSPKALIYSASYQYSGVPSRFSGSGSGTDFTLTISSLQPEDVATYICQQYKNYPYTFGGGTKVEIK
VH 2: EVQLVESGGGVVQPGRSLRLSCAASGFTFTDYYMSWVRQAPGKGLEWVAMSRNKAKGHTIEYSSSVKGRFTISRDNSKNTLYLQMNSLRAEDTAVYYCARDTYESYDGYFDVWGQGTTVTVSS
VL 2: DIVMTQSPDSLAVSLGERATINCKSSQSLFNSRSRKNYLAWYQQKPGQTPKLLIYWASIRESGVPDRFSGSGSGTDFTLTISSLQAEDVAVYYCKQSYYLYTFGQGTKLEIK
As to B8, the concentration giving a half-maximal response (EC50) came out at 2.54 nM in test [1] and 1.66 nM in test [3]. Moreover, in test [2], the “Maximum mean fluorescence intensity” value was 377.
